The results in this text go back to patent US20140072613A1 (published 2014).

Assay in all cases: cell-based or functional assay
Assay [1] deals with T1, IKKβ(h) (human, UniProt O14920 1-756).
T1 sequence (looked up): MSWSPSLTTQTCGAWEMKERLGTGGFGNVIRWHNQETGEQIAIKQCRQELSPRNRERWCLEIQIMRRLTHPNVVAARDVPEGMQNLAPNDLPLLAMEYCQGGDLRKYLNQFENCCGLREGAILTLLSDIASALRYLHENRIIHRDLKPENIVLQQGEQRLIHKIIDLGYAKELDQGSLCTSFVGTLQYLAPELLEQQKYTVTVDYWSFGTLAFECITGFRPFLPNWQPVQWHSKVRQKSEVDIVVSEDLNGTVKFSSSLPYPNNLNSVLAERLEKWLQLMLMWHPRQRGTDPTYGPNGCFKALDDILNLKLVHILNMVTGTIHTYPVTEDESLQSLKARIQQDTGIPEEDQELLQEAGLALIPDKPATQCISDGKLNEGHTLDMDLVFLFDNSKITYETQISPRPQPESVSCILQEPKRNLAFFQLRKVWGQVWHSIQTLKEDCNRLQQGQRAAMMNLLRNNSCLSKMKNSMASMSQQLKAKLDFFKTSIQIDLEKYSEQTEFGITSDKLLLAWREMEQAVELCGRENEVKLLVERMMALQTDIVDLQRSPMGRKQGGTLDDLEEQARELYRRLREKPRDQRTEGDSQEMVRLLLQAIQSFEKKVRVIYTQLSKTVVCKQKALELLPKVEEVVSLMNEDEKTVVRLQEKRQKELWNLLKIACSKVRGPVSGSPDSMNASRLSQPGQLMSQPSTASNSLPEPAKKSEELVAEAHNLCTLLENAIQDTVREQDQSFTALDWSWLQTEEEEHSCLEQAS

Assay [2] addresses IR(h), activated (human, UniProt P06213 1005-1310, limits assumed).
The target of assay [3] is MAPKAP-K3(h) (human, UniProt Q16644 1-382, limits assumed).
The target in assay [4] is T2, MST1(h) (human, UniProt Q13043 1-487).
T2 sequence (looked up): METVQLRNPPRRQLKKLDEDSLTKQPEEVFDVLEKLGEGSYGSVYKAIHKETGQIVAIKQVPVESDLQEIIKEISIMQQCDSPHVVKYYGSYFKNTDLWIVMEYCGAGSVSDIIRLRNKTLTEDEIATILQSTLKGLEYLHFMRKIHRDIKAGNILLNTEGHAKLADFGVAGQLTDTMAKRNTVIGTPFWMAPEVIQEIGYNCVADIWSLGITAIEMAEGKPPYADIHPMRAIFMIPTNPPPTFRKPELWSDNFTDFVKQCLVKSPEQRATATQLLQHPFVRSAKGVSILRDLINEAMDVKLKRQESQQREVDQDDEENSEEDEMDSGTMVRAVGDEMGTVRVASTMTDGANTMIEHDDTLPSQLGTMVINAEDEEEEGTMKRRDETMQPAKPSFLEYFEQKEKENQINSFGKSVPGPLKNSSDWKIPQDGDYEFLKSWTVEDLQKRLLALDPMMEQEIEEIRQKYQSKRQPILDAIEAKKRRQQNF

Assay [5] concerns the target AMPKα2(h) (human, UniProt P54646 1-552).
Assay [6] addresses PASK(h) (human, UniProt Q96RG2 879-1323, limits assumed).
In assay [7] the target is PKCβII(h) (human, UniProt P05771-2 1-673).
The target of assay [8] is T3, PKCε(h) (human, UniProt Q02156 1-737).
T3 sequence (looked up): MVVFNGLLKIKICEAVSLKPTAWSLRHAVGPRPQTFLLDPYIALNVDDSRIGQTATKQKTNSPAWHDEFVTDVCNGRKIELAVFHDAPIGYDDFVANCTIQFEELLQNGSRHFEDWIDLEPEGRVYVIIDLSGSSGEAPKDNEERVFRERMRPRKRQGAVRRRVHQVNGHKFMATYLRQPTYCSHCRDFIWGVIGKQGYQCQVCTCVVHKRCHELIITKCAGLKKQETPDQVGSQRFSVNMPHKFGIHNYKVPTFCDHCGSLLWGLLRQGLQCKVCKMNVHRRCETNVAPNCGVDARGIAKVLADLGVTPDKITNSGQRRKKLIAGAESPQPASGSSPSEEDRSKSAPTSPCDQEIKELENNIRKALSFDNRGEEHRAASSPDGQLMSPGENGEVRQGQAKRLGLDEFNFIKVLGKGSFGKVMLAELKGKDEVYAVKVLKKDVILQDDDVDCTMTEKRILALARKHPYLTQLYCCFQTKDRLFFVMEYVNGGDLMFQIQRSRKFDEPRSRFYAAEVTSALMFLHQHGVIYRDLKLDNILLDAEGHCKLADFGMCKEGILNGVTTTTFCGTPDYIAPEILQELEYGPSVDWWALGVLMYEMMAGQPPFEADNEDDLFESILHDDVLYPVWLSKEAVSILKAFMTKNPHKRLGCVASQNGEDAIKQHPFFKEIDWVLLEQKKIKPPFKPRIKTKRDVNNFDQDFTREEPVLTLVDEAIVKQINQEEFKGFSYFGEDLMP

In assay [9] the target is SAPK2a(h) (human, UniProt Q16539 1-360).
The target in assay [10] is Tie2(h) (human, UniProt Q02763 771-1124, limits assumed).
Assay [11] deals with T4, TSSK2(h) (human, UniProt Q96PF2 1-358).
T4 sequence (looked up): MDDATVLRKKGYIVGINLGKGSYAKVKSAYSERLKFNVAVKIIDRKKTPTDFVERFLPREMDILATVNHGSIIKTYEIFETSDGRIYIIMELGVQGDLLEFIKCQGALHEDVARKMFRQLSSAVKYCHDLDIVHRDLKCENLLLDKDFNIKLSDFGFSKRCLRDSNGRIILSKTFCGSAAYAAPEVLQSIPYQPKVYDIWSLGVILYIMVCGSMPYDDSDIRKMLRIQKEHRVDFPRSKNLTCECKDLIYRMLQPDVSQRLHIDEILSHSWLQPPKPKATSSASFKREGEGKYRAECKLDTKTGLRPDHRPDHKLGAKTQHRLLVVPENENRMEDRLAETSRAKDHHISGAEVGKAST

The target of assay [12] is WNK3(h) (human, UniProt Q9BYP7 1-434, limits assumed).
Sequence of WNK3(h) (Q9BYP7 1-434 limits assumed): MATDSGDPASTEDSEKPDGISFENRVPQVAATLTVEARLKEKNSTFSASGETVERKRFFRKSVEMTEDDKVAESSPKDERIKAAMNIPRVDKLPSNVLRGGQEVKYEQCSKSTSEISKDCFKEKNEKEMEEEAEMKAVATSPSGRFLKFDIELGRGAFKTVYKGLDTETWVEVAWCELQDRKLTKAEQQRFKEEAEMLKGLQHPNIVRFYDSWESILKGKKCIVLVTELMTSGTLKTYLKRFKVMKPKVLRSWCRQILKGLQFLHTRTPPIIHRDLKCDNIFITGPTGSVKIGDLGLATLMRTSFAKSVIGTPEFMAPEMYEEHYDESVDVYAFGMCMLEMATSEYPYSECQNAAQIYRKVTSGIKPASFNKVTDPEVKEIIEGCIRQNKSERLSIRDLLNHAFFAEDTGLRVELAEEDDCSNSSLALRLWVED

Sequence of MAPKAP-K3(h) (Q16644 whole entry): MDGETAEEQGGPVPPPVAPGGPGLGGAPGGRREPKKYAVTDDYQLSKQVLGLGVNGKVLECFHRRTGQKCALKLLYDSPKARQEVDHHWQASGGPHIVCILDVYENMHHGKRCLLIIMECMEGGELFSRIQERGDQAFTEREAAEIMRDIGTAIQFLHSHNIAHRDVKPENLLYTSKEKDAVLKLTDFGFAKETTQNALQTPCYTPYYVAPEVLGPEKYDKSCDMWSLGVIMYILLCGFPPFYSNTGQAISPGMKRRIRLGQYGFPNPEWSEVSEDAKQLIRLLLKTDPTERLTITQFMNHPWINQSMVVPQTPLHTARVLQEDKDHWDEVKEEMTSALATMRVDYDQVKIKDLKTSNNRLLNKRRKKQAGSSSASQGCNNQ
Sequence of PASK(h) (Q96RG2 879-1323 limits assumed): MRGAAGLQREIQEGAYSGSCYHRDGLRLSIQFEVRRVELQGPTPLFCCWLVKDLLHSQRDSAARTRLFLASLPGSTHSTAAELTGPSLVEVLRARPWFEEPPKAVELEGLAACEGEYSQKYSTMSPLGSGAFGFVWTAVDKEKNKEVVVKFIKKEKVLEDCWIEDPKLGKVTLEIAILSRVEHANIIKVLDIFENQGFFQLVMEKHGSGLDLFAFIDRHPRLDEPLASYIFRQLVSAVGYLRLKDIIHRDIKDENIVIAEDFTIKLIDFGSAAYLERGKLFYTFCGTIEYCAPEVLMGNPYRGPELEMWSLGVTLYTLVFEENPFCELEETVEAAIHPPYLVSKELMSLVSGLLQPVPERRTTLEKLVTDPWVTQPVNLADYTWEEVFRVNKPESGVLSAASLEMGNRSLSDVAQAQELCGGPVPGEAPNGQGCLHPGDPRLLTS
Sequence of SAPK2a(h) (Q16539 whole entry): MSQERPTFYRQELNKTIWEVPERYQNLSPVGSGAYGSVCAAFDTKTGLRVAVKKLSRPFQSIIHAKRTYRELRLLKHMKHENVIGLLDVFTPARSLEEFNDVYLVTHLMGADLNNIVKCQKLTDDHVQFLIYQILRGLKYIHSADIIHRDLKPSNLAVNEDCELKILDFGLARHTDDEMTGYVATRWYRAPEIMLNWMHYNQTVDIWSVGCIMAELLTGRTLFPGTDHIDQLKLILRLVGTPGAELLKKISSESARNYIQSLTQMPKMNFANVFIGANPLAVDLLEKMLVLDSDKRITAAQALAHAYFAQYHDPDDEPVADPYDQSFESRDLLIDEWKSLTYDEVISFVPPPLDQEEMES
Sequence of PKCβII(h) (P05771 other isoform, or with tags, fused parts or gaps): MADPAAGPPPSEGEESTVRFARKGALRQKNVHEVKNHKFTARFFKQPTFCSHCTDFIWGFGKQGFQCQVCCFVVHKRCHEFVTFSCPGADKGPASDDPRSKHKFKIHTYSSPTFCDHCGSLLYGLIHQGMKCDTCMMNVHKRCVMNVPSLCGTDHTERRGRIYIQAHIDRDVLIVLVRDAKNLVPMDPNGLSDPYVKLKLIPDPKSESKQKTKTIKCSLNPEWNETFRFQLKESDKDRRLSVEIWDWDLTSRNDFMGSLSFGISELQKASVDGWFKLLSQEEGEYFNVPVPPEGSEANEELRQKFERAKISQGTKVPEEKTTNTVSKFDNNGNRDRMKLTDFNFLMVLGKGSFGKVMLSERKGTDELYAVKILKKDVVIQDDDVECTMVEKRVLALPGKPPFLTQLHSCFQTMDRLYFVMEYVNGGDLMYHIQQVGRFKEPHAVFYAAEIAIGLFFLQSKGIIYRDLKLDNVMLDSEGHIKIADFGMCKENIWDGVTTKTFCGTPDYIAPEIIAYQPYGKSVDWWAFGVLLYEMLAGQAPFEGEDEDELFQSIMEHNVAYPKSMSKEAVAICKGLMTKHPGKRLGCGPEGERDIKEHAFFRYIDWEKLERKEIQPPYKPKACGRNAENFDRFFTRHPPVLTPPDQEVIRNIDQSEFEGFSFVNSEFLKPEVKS
Sequence of AMPKα2(h) (P54646 whole entry): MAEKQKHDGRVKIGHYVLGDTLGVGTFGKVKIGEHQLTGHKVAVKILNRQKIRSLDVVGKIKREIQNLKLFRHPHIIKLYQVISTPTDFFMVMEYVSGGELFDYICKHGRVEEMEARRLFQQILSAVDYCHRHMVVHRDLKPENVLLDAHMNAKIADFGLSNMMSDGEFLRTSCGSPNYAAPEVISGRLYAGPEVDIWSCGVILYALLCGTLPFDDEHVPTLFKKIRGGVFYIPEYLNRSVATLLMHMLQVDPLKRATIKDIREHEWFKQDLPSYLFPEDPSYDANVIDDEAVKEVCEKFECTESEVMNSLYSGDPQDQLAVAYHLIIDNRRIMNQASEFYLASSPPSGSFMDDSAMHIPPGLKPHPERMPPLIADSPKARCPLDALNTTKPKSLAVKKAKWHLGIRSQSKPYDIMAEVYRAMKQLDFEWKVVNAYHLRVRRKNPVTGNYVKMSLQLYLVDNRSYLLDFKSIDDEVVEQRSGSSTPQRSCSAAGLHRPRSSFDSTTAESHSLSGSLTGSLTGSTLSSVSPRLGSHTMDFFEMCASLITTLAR
Sequence of Tie2(h) (Q02763 771-1124 limits assumed): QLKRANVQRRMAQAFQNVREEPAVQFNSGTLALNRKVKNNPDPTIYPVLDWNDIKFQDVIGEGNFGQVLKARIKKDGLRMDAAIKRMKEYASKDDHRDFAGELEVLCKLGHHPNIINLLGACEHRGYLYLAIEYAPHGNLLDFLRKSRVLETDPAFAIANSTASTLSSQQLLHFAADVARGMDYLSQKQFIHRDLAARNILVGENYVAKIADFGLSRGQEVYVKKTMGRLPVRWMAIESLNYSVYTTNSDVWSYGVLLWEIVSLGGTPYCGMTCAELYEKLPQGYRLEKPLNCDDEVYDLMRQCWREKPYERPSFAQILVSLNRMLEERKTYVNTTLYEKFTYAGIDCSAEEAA
Sequence of IR(h), activated (P06213 1005-1310 limits assumed): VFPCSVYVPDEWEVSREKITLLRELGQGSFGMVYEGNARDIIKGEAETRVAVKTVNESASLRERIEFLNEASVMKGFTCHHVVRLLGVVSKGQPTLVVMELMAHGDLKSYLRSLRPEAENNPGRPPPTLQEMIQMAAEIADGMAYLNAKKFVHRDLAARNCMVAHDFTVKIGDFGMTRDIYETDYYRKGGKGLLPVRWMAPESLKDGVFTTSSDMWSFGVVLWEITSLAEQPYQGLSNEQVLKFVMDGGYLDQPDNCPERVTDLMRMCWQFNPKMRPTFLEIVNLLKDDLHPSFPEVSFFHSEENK

Turning to FAKLAARLYRKALARQLGVAA [MMI-0300], the “% activity, 100 µM” value in assay [1] is 84%; in [2], 79%; in assay [3] it was 3%; in assay [4], 14%; in assay [5], 54%; in assay [6] it was 29%. For the same molecule, the “% activity, 100 µM” value in assay [7] was 82%; in assay [8], 79%; in [9], 90%; in assay [10] it was 26%; in assay [11], 98%; in [12], 77%.
Turning to KAFAKLAARLYRKALARQLGVAA [MMI-0400], the “% activity, 100 µM” value in assay [1] worked out at 84%; in assay [2], 59%; in assay [3] it was 7%; in assay [4] it was 6%; in assay [5], 58%; in assay [6], 28%. For the same molecule, the “% activity, 100 µM” value in assay [7] came out at 75%; in assay [8], 59%; in assay [9], 85%; in assay [10], 21%; in assay [11], 94%; in assay [12], 74%.
